Assay results reported in patent US9550817B2, “Men1 gene for diagnosis and treatment of diabetes” (THE TRUSTEES OF THE UNIVERSITY OF PENNSYLVANIA, priority 2006, dated 2017).

Target: T1, menin (Homo sapiens, UniProt O00255)
T1 construct: made in house; host or cells: E. coli
T1 sequence (O00255 1-610): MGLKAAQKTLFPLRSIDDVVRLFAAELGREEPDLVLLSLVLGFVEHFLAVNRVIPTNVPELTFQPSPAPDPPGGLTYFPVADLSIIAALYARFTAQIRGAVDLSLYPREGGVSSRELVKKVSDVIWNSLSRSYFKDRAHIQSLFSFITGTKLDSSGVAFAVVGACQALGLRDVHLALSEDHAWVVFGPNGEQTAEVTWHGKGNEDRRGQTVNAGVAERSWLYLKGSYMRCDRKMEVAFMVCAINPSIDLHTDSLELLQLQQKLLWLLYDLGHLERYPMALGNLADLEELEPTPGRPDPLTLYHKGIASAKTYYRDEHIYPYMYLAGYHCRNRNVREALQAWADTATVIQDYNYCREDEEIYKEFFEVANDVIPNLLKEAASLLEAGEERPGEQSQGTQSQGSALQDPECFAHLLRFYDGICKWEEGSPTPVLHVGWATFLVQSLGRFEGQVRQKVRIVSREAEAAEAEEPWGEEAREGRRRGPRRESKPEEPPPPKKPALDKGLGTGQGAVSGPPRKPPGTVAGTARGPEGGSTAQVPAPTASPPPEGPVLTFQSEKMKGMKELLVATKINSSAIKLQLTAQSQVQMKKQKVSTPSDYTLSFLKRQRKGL
Test: Pull-down of menin by biotinylated peptides on streptavidin-agarose beads, Western blot with anti-menin antibody
Type: binding
Settings: menin expressed in and purified from E. coli
Protocol: Biotinylated peptides were synthesized at the Peptide synthesis facility at Yale University, and loaded to streptavidin-agraose beads (Invitrogen, Inc), and incubated with menin expressed in and purified from E. coli. After multiple washings, the beads were analyzed via Western blot analysis using an anti-menin antibody.
Biotinylated peptides were synthesized, loaded to streptavidin-agraose beads (Invitrogen Inc), and incubated with menin expressed in and purified from E. coli. After multiple washings, the beads were analyzed via Western blot analysis using an anti-menin antibody. […] Especially, the peptide designated the sequence […] (SEQ ID No. 7).

Sequence: MAHSCRWRFPGSGSCRWRFP (Human) [SEQ ID No. 7, short synthetic peptide from the N-terminus of MLL]
- binding of peptide to menin in vitro (FIG. 12): able to react with Men1
